The results in this text go back to US20170101454A1 (Novo Nordisk, published 2017).

The term IC50 denotes the concentration at which inhibition is half-maximal.

Starred links: 1 amine or outer side, 2 acyl side, 3 side chain; linkers in the order of their positions; H or OH if unused. Non-standard residues stand in square brackets, D forms with d. Groups on a side chain read outwards from the residue. No end group written: not given here. *: point of attachment. C18 diacid = O=C(O)CCCCCCCCCCCCCCCCC(=O)*; γGlu = O=C(O)[C@H](CCC(=O)[*:2])N[*:1]; AEEA = NCCOCCOCC(=O)O; Aib = CC(C)(N)C(=O)O

The target in test [1] is T1, human glucagon receptor (human, UniProt P47871 26-477).
T1 construct: whole, on cells; reporter assay used whole cells; also called hGCGR
T1 sequence (P47871 26-477): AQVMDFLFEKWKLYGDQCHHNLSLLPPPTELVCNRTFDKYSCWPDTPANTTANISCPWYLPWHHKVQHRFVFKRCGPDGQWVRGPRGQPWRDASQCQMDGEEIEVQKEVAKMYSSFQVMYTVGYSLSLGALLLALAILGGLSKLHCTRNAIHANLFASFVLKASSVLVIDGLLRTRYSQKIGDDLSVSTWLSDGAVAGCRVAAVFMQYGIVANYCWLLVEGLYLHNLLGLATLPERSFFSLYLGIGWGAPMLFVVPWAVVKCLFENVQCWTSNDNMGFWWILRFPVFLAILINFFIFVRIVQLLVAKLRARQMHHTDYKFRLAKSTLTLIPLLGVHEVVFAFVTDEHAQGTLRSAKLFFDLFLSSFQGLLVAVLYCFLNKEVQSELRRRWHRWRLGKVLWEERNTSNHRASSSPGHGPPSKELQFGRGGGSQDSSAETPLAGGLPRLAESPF
Briefly: displacement of [125I]-glucagon from BHK membranes with human glucagon receptor, SPA, no serum albumin. A general note: Loss of bound radioactivity is the signal in a displacement assay; it reports binding, not function.

Test [2] concerns the target T2, human GLP-1 receptor (human, UniProt P43220 24-463). The test can be described thus: cell-based or functional assay.
For test [3], the target named is T1, human glucagon receptor. Briefly: cell-based or functional assay.
Test [4] addresses T2, human GLP-1 receptor. The test can be described thus: displacement of [125I]-GLP-1-(7-36)NH2 from BHK membranes with human GLP-1R, SPA, no serum albumin.

For the molecule H[Aib]QGTFTSDLSRYLDARRARDFVQWLIK([γGlu-γGlu-γGlu-C18 diacid])T-NH2 (also called Chem. 14; Chem 14), the half-inhibitory concentration (IC50) was found to be 6.4 nM in test [1] and 0.1 nM in test [4]. Further, the “GLP-1R EC50 (pM) [Assay (I)(a)], CRE luciferase reporter, BHK cells” value (from here on “GLP-1R EC50 (pM) [Assay (I)(a)]”) in test [2] was 2 pM. In addition, in test [3], the “GlucagonR EC50 (pM), [Assay (I)(b)], CRE luciferase reporter, BHK cells” value (“GlucagonR EC50 (pM), [Assay (I)(b)]” for short) stood at 9 pM.

B1: N^ε29-[(4S)-4-carboxy-4-[[(4S)-4-carboxy-4-[[2-[2-[2-[[2-[2-[2-[[(4S)-4-carboxy-4-(17-carboxyheptadecanoylamino)butanoyl]amino]ethoxy]ethoxy]acetyl]amino]ethoxy … (peptide)
peptide: H[Aib]QGTFTSDLSKYLDARRAREFVQWLISK([γGlu-γGlu-AEEA-AEEA-γGlu-C18 diacid])-NH2
modifications: N-terminus assumed
SMILES: CC[C@H](C)[C@H](NC(=O)[C@H](CC(C)C)NC(=O)[C@H](Cc1c[nH]c2ccccc12)NC(=O)[C@H](CCC(N)=O)NC(=O)[C@@H](NC(=O)[C@H](Cc1ccccc1)NC(=O)[C@H](CCC(=O)O)NC(=O)[C@H](CCCNC(=N)N)NC(=O)[C@H](C)NC(=O)[C@H](CCCNC(=N)N)NC(=O)[C@H](CCCNC(=N)N)NC(=O)[C@H](C)NC(=O)[C@H](CC(=O)O)NC(=O)[C@H](CC(C)C)NC(=O)[C@H](Cc1ccc(O)cc1)NC(=O)[C@H](CCCCN)NC(=O)[C@H](CO)NC(=O)[C@H](CC(C)C)NC(=O)[C@H](CC(=O)O)NC(=O)[C@H](CO)NC(=O)[C@@H](NC(=O)[C@H](Cc1ccccc1)NC(=O)[C@@H](NC(=O)CNC(=O)[C@H](CCC(N)=O)NC(=O)C(C)(C)NC(=O)[C@@H](N)Cc1c[nH]cn1)[C@@H](C)O)[C@@H](C)O)C(C)C)C(=O)N[C@@H](CO)C(=O)N[C@@H](CCCCNC(=O)CC[C@H](NC(=O)CC[C@H](NC(=O)COCCOCCNC(=O)COCCOCCNC(=O)CC[C@H](NC(=O)CCCCCCCCCCCCCCCCC(=O)O)C(=O)O)C(=O)O)C(=O)O)C(N)=O
notes: also called Chem. 28; Chem 28
For the molecule B1, the IC50 in test [1] is 8.6 nM; in test [4], 0.2 nM. In addition, the “GLP-1R EC50 (pM) [Assay (I)(a)]” value in test [2] came out at 3 pM. In addition, in test [3], the “GlucagonR EC50 (pM), [Assay (I)(b)]” value turned out to be 36 pM.

B2: N^ε29-[(4S)-4-carboxy-4-[[(4S)-4-carboxy-4-[[2-[2-[2-[[2-[2-[2-[[(4S)-4-carboxy-4-(17-carboxyheptadecanoylamino)butanoyl]amino]ethoxy]ethoxy]acetyl]amino]ethoxy … (peptide)
peptide: H[Aib]QGTFTSDLSKYLDARRARDFVQWLINK([γGlu-γGlu-AEEA-AEEA-γGlu-C18 diacid])-NH2
modifications: N-terminus assumed
SMILES: CC[C@H](C)[C@H](NC(=O)[C@H](CC(C)C)NC(=O)[C@H](Cc1c[nH]c2ccccc12)NC(=O)[C@H](CCC(N)=O)NC(=O)[C@@H](NC(=O)[C@H](Cc1ccccc1)NC(=O)[C@H](CC(=O)O)NC(=O)[C@H](CCCNC(=N)N)NC(=O)[C@H](C)NC(=O)[C@H](CCCNC(=N)N)NC(=O)[C@H](CCCNC(=N)N)NC(=O)[C@H](C)NC(=O)[C@H](CC(=O)O)NC(=O)[C@H](CC(C)C)NC(=O)[C@H](Cc1ccc(O)cc1)NC(=O)[C@H](CCCCN)NC(=O)[C@H](CO)NC(=O)[C@H](CC(C)C)NC(=O)[C@H](CC(=O)O)NC(=O)[C@H](CO)NC(=O)[C@@H](NC(=O)[C@H](Cc1ccccc1)NC(=O)[C@@H](NC(=O)CNC(=O)[C@H](CCC(N)=O)NC(=O)C(C)(C)NC(=O)[C@@H](N)Cc1c[nH]cn1)[C@@H](C)O)[C@@H](C)O)C(C)C)C(=O)N[C@@H](CC(N)=O)C(=O)N[C@@H](CCCCNC(=O)CC[C@H](NC(=O)CC[C@H](NC(=O)COCCOCCNC(=O)COCCOCCNC(=O)CC[C@H](NC(=O)CCCCCCCCCCCCCCCCC(=O)O)C(=O)O)C(=O)O)C(=O)O)C(N)=O
notes: also called Chem. 20; Chem 20
With B2, the IC50 came to 13.6 nM in test [1] and 0.1 nM in test [4]. The “GLP-1R EC50 (pM) [Assay (I)(a)]” value in test [2] came to 4 pM. Besides, the “GlucagonR EC50 (pM), [Assay (I)(b)]” value in test [3] was 70 pM.

B3: N^ε29-[(4S)-4-carboxy-4-[[(4S)-4-carboxy-4-[[2-[2-[2-[[2-[2-[2-[[(4S)-4-carboxy-4-(17-carboxyheptadecanoylamino)butanoyl]amino]ethoxy]ethoxy]acetyl]amino]ethoxy … (peptide)
peptide: H[Aib]QGTFTSDLSKYLDARRAREFVQWLINK([γGlu-γGlu-AEEA-AEEA-γGlu-C18 diacid])-NH2
modifications: N-terminus assumed
SMILES: CC[C@H](C)[C@H](NC(=O)[C@H](CC(C)C)NC(=O)[C@H](Cc1c[nH]c2ccccc12)NC(=O)[C@H](CCC(N)=O)NC(=O)[C@@H](NC(=O)[C@H](Cc1ccccc1)NC(=O)[C@H](CCC(=O)O)NC(=O)[C@H](CCCNC(=N)N)NC(=O)[C@H](C)NC(=O)[C@H](CCCNC(=N)N)NC(=O)[C@H](CCCNC(=N)N)NC(=O)[C@H](C)NC(=O)[C@H](CC(=O)O)NC(=O)[C@H](CC(C)C)NC(=O)[C@H](Cc1ccc(O)cc1)NC(=O)[C@H](CCCCN)NC(=O)[C@H](CO)NC(=O)[C@H](CC(C)C)NC(=O)[C@H](CC(=O)O)NC(=O)[C@H](CO)NC(=O)[C@@H](NC(=O)[C@H](Cc1ccccc1)NC(=O)[C@@H](NC(=O)CNC(=O)[C@H](CCC(N)=O)NC(=O)C(C)(C)NC(=O)[C@@H](N)Cc1c[nH]cn1)[C@@H](C)O)[C@@H](C)O)C(C)C)C(=O)N[C@@H](CC(N)=O)C(=O)N[C@@H](CCCCNC(=O)CC[C@H](NC(=O)CC[C@H](NC(=O)COCCOCCNC(=O)COCCOCCNC(=O)CC[C@H](NC(=O)CCCCCCCCCCCCCCCCC(=O)O)C(=O)O)C(=O)O)C(=O)O)C(N)=O
notes: also called Chem. 21; Chem 21
Take B3: the IC50 in test [1] came out at 8.7 nM; in test [4], 0.1 nM. Besides, the “GLP-1R EC50 (pM) [Assay (I)(a)]” value in test [2] is 3 pM. For the same molecule, the “GlucagonR EC50 (pM), [Assay (I)(b)]” value in test [3] amounted to 31 pM.

B4: N^ε29-[(4S)-4-carboxy-4-[[(4S)-4-carboxy-4-[[2-[2-[2-[[2-[2-[2-[[(4S)-4-carboxy-4-(17-carboxyheptadecanoylamino)butanoyl]amino]ethoxy]ethoxy]acetyl]amino]ethoxy … (peptide)
peptide: H[Aib]QGTFTSDLSKYLDARRARDFVQWLISK([γGlu-γGlu-AEEA-AEEA-γGlu-C18 diacid])-NH2
modifications: N-terminus assumed
SMILES: CC[C@H](C)[C@H](NC(=O)[C@H](CC(C)C)NC(=O)[C@H](Cc1c[nH]c2ccccc12)NC(=O)[C@H](CCC(N)=O)NC(=O)[C@@H](NC(=O)[C@H](Cc1ccccc1)NC(=O)[C@H](CC(=O)O)NC(=O)[C@H](CCCNC(=N)N)NC(=O)[C@H](C)NC(=O)[C@H](CCCNC(=N)N)NC(=O)[C@H](CCCNC(=N)N)NC(=O)[C@H](C)NC(=O)[C@H](CC(=O)O)NC(=O)[C@H](CC(C)C)NC(=O)[C@H](Cc1ccc(O)cc1)NC(=O)[C@H](CCCCN)NC(=O)[C@H](CO)NC(=O)[C@H](CC(C)C)NC(=O)[C@H](CC(=O)O)NC(=O)[C@H](CO)NC(=O)[C@@H](NC(=O)[C@H](Cc1ccccc1)NC(=O)[C@@H](NC(=O)CNC(=O)[C@H](CCC(N)=O)NC(=O)C(C)(C)NC(=O)[C@@H](N)Cc1c[nH]cn1)[C@@H](C)O)[C@@H](C)O)C(C)C)C(=O)N[C@@H](CO)C(=O)N[C@@H](CCCCNC(=O)CC[C@H](NC(=O)CC[C@H](NC(=O)COCCOCCNC(=O)COCCOCCNC(=O)CC[C@H](NC(=O)CCCCCCCCCCCCCCCCC(=O)O)C(=O)O)C(=O)O)C(=O)O)C(N)=O
notes: also called Chem. 27; Chem 27
Turning to B4, the half-maximal inhibitory concentration (IC50) in test [1] was 19.1 nM; in test [4], 0.2 nM. The “GLP-1R EC50 (pM) [Assay (I)(a)]” value in test [2] stood at 3 pM. The “GlucagonR EC50 (pM), [Assay (I)(b)]” value in test [3] came out at 66 pM.

B5: N^ε29-[(4S)-4-carboxy-4-[[(4S)-4-carboxy-4-[[2-[2-[2-[[2-[2-[2-[[(4S)-4-carboxy-4-(17-carboxyheptadecanoylamino)butanoyl]amino]ethoxy]ethoxy]acetyl]amino]ethoxy … (peptide)
chain: H[Aib]QGTFTSDLSKYLDLRRARDFVAWLINK([γGlu-γGlu-AEEA-AEEA-γGlu-C18 diacid])-NH2
modifications: N-terminus assumed
SMILES: CC[C@H](C)[C@H](NC(=O)[C@H](CC(C)C)NC(=O)[C@H](Cc1c[nH]c2ccccc12)NC(=O)[C@H](C)NC(=O)[C@@H](NC(=O)[C@H](Cc1ccccc1)NC(=O)[C@H](CC(=O)O)NC(=O)[C@H](CCCNC(=N)N)NC(=O)[C@H](C)NC(=O)[C@H](CCCNC(=N)N)NC(=O)[C@H](CCCNC(=N)N)NC(=O)[C@H](CC(C)C)NC(=O)[C@H](CC(=O)O)NC(=O)[C@H](CC(C)C)NC(=O)[C@H](Cc1ccc(O)cc1)NC(=O)[C@H](CCCCN)NC(=O)[C@H](CO)NC(=O)[C@H](CC(C)C)NC(=O)[C@H](CC(=O)O)NC(=O)[C@H](CO)NC(=O)[C@@H](NC(=O)[C@H](Cc1ccccc1)NC(=O)[C@@H](NC(=O)CNC(=O)[C@H](CCC(N)=O)NC(=O)C(C)(C)NC(=O)[C@@H](N)Cc1c[nH]cn1)[C@@H](C)O)[C@@H](C)O)C(C)C)C(=O)N[C@@H](CC(N)=O)C(=O)N[C@@H](CCCCNC(=O)CC[C@H](NC(=O)CC[C@H](NC(=O)COCCOCCNC(=O)COCCOCCNC(=O)CC[C@H](NC(=O)CCCCCCCCCCCCCCCCC(=O)O)C(=O)O)C(=O)O)C(=O)O)C(N)=O
B5: the IC50 in test [1] was 14 nM; in test [4], 0.4 nM. Besides, in test [2], the “GLP-1R EC50 (pM) [Assay (I)(a)]” value is 3 pM. Moreover, the “GlucagonR EC50 (pM), [Assay (I)(b)]” value in test [3] was 55 pM.
